Marks after values point to notes of the source that are not given here.
What was measured:
WiDr cells = experiment: Caspase 3/7 activation; type: cell-based, human; conditions: 100 μg/ml antibody or 300 ng/ml TWEAK, 48 h
Experimental: (§1) To determine the level of apoptosis induction, Caspase-3/7 activation was measured after treatment of cancer cells with TWEAK or agonistic anti-TWEAKR antibodies. Therefore HT-29 cells were plated at a density of 4000 cells/75 μl/well in 96 well plates in assay medium (DMEM/Ham's F12, Biochrom #FG4815+10% FCS+100 ng/ml IFN gamma (R&D Systems #285-IF)). 24 h later cells were incubated with antibodies to the TWEAKR (see Table 24), recombinant human TWEAK (R&D, #1090-TW-025/CF, E. coli derived recombinant soluble human TWEAK, Arg93-His249 of accession # Q4ACW9, Entrez Gene ID 8742, with an N-terminal Met and 6-His tag) or corresponding isotype control IgG at various concentrations as indicated. After 24 h incubation with the antibodies, Caspase 3/7 activity was determined by adding 100 μl/well Caspase 3/7 Solution (Promega, #G8093) to the cells, incubation for one hour and reading of luminescence on a VICTOR V (Perkin Elmer).
(§2) To determine whether the strong efficacy of the antibodies of the invention also holds true in other cell lines than HT-29, the capacity to induce Caspase 3/7 by anti-TWEAKR antibodies as compared to recombinant human TWEAK was evaluated in a panel of cell lines. For this analysis the following conditions were used: WiDr cells were plated at 3000 cells/well and incubated for 48 h in the presence of TWEAK or the described antibodies, A253 cells were plated at 2500 cells/well and incubated for 24 h, NCI-H322 cells were plated at 5000 cells/well and incubated for 48 h and 786-O cells were plated at 2500 cells/well and incubated for 48 h. The cells were plated in the media as described in Table 21, for A253, NCI-H322 and 786-O cells 100 ng/ml IFN gamma (R&D Systems #285-IF) was added. 24 h after plating antibodies at 100 μg/ml or TWEAK at 300 ng/ml (100 ng/ml TWEAK for NCI-H322 cells) were added and the cells were further incubated for the time periods indicated above. At the end of the incubation time Caspase 3/7 activity was determined as described for HT-29 cells. The fold induction of Caspase 3/7 was calculated as compared to untreated cells.

NCI-H322 cells = experiment: Caspase 3/7 activation; type: cell-based, human; conditions: 100 μg/ml antibody or *100 ng/ml TWEAK, 48 h, IFN gamma
Experimental: as §1, §2

A253 cells [1] = experiment: Caspase 3/7 activation; type: cell-based, human; conditions: 100 μg/ml antibody or 300 ng/ml TWEAK, 24 h, IFN gamma
Experimental: as §1, §2

786-O cells [2] = experiment: Caspase 3/7 activation; type: cell-based, human; conditions: 100 μg/ml antibody or 300 ng/ml TWEAK, 48 h, IFN gamma
Experimental: as §1, §2

TWEAKR = TWEAKR (Homo sapiens, UniProt Q9NP84); conditions: published data; read-out: KD / binding affinity to TWEAKR (published); cited from earlier work
SW480 cells = experiment: Inhibition of proliferation (Cell Titer Glo); type: cell-based, human; conditions: 72h, 100 μg/ml antibody or *100 ng/ml TWEAK
Experimental: (§3) Therefore cells were plated in 96well plates in 750 assay medium (growth media from Table 21, plus 100 ng/ml IFN gamma for 786-O cells) at the following cell numbers: WiDr cells 3000 cells/well, 786-O cells 2500 cells/well. 24 h later cells were incubated with anti-TWEAKR antibodies (see Table 26), recombinant human TWEAK or isotype control IgG (not shown) at the indicated concentrations (antibodies from 0.03-300 μg/ml, TWEAK 100 or 300 ng/ml). At the time of antibody addition cell viability was determined in sister plates (time point zero): therefore 750/well CTG solution (Promega Cell Titer Glo solution (catalog # G755B and G756B) was added to the cells, incubated for 10 minutes and luminescence was read on a Victor V (Perkin Elmer). 96 h after incubation with the agents, cell viability was determined in the assay plates by addition of 100 μl/well CTG solution, 10 min incubation and reading of luminescence. Proliferation in control wells was calculated by subtracting time zero values from the luminescence values in the untreated control wells. % of cell proliferation was calculated in the compound treated wells as compared to the untreated control wells.
(§4) To evaluate, whether this strong anti-proliferative activity can also be observed in a broader cell panel, in addition LOVO, NCI-H1975, SW-480 (all 3000 cells/well), HT-29 (4000 cells/well), A253 and SK-OV3 (both 2500 cells/well) cells were incubated with 100 μg/ml anti-TWEAKR antibodies or TWEAK ligand for the time periods as indicated in Table 27. All cells were seeded in the growth media indicated in Table 21 and for all cells except for WiDr cells 100 ng/ml IFNgamma was added to the assay medium when seeding the cells. The percentage of growth inhibition for treated cells as compared to proliferation in untreated control cells was measured and calculated as described above. As shown in Table 27 the antibodies of the current invention are more efficacious as compared to other known antibodies in inhibiting proliferation of various cancer cell lines at 100 μg/ml. In most experiments the antibodies of the current invention also show equal or stronger efficacy as compared to 100-300 ng/ml TWEAK ligand. Thus, the antibodies described in this invention are unique in their activity to induce apoptosis and proliferation inhibition in a broad panel of cancer cell lines.

NCI-H1975 cells = experiment: Inhibition of proliferation (Cell Titer Glo); type: cell-based, human; conditions: 72h, 100 μg/ml antibody or *100 ng/ml TWEAK
Experimental: as §3, §4

Lovo cells = experiment: Inhibition of proliferation (Cell Titer Glo); type: cell-based, human; conditions: 72h, 100 μg/ml antibody or *100 ng/ml TWEAK
Experimental: as §3, §4

A253 cells [3] = experiment: Inhibition of proliferation (Cell Titer Glo); type: cell-based, human; conditions: 72h, 100 μg/ml antibody or **300 ng/ml TWEAK
Experimental: as §3, §4

HT-29 cells [4] = experiment: Inhibition of proliferation (Cell Titer Glo); type: cell-based, human; conditions: 24h, 100 μg/ml antibody or **300 ng/ml TWEAK
Experimental: as §3, §4

786-O cells [5] = experiment: Inhibition of proliferation (Cell Titer Glo); type: cell-based, human; conditions: 96h, 100 μg/ml antibody or *100 ng/ml TWEAK
Experimental: as §3, §4

HT-29 cells [6] = experiment: Caspase 3/7 activation; type: cell-based, human; conditions: 100 μg/ml antibody or 300 ng/ml TWEAK, 24 h, IFN gamma
Experimental: as §1

B1: TWEAK: endogenous TWEAKR ligand; E. coli derived recombinant soluble human TWEAK, Arg93-His249 (R&D #1090-TW-025/CF) (protein, UniProt O43508 93-249, looked up, fragment)
chain: RSAPKGRKTRARRAIAAHYEVHPRPGQDGAQAGVDGTVSGWEEARINSSSPLRYNRQIGEFIVTRAGLYYLYCQVHFDEGKAVYLKLDLLVDGVLALRCLEEFSATAASSLGPQLRLCQVSGLLALRPGSSLRIRTLPWAHLKAAPFLTYFGLFQVH
- Fold induction of Caspase 3/7 (WiDr cells): 1.22 ± 0.02
- Fold induction of Caspase 3/7 (NCI-H322 cells): 1.39 ± 0.01
- Fold induction of Caspase 3/7 (A253 cells [1]): 1.53 ± 0.13
- Fold induction of Caspase 3/7 (786-O cells [2]): 1.45 ± 0.05
- Kd (TWEAKR): 0.8 to 2.4 nM
- % Inhibition of proliferation (SW480 cells): 0%*
- % Inhibition of proliferation (NCI-H1975 cells): 56%*
- % Inhibition of proliferation (Lovo cells): 53%*
- % Inhibition of proliferation (A253 cells [3]): >100%**
- % Inhibition of proliferation (HT-29 cells [4]): 98%**
- % Inhibition of proliferation (786-O cells [5]): 12%*
- Fold induction of Caspase 3/7 (HT-29 cells [6]): 2.31 ± 0.29

Source: patent US20160237160A1, “ANTI-TWEAKR ANTIBODIES AND USES THEREOF” (BAYER PHARMA AKTIENGESELLSCHAFT, priority 2013, published 2016)
